Results as given in the supplement of paper PMC9170038.

The sequences below were run on MS2 coat protein (assay: apparent KD of MS2 coat protein; higher = weaker reporter binding). Details: Eterna round: R107; input ligand: theophylline 20 uM.
In short: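 Illumina sequencing clusters served as templates for on-chip transcription of the designed RNA switches. SNAP-549-labelled MS2 coat protein was then titrated in twofold steps from 0.7 or 1.5 nM to 3 µM, allowing 0.8–1.5 h per step at first and 10–20 min per step later. The buffer held 100 mM Tris-HCl pH 7.5, 80 mM KCl and 4 mM MgCl2, without or with constant ligand. Apparent KD is the median per design of normalised cluster binding-curve fits.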
“GGAUAGGACAGAAGGAGCGACGUGAGGCGAAAGCCAAUCCUUCAACAUGAGGAUCACCCAUGUCAGGUAGGUCGCUGUCCUAUCG [ArgBX 5]” was tested, and the “apparent KD of MS2 coat protein” value was 26.4 nM. In the case of “ACAUAUUGGUGGUACCAACGAAGGCGGAAACGAGGACCGGUACGGCCGCCACUCGGCGACAUGAGGAUCACCCAUGUGGUUAAAA [Exclusion - Tryptophan A (Freestyle 2)]”, the “apparent KD of MS2 coat protein” value is reported as 153 nM. “AGUACUCGAACGGAUACCAGCCGGACAUGAGGAUCACCCAUGUCCUACCAUGGUUCGGUUGGCCCUUGGCAGCCGUUCGUGUACA [Omei Theo B SS A v3]” was tested, and the “apparent KD of MS2 coat protein” value was 204 nM. In the case of “AAAGACAUGAGGAUCACCCAUGUGGGUGGGCGAGGACCGGUACGGCCGCCACUCGUGGGCGGGAAGGGAUAUUUAAUAAGGAAGA [same state--tryptophan A 1st shot]”, the “apparent KD of MS2 coat protein” value is reported as 155 nM. In the case of “UGUAUGUGAUCUGAUACCAGAGUUGAUAAUCUGAGGAUCACCCUGGUAAGGCGAAAGCCACUCCCUUGGCAGCAGAUCGCAUACU”, the “apparent KD of MS2 coat protein” value is reported as 874 nM. With “GUAGCGACGACGGCCGCCACUCACAGGUGAGGGUAGACCAACCUUCACAUGAGGAUCACCCAUGUGAGGACCGGGUUGUCGGUAC [#11 Exclusion Tryptophan B]” the “apparent KD of MS2 coat protein” value was 95.5 nM. “GAUGAAGUAACUGAUACCAGUGUACUGACAUGAGGAUCACCCAUGUUGGGUUUUGUUGUACACCCUUGGCAGCAGAAUCUUUAUC [AstrosExyTheB#5]” was tested, and the “apparent KD of MS2 coat protein” value was 60.8 nM. With “GUCCUAGCGAGCACUCGCUAGGACGCGGAUACCAGCGAGGUCCAUCGCCCUUGGCAGCCGAACAUGAGGAUCACCCAUGUCGGUA [#1 Same State - Theophylline A Attempt #17 (HarryS)]” the “apparent KD of MS2 coat protein” value was 13.2 nM. In the case of “AUACAUGAGGAUCACCCAUGUCCUCGUGAUCGAGGACCGGUACGGCCGCCACUCGGUCCUCGCGAGGAGGAGUCAAAGACUCCAA [Omei Trp A SS A v4]”, the “apparent KD of MS2 coat protein” value is reported as 111 nM. “GAUGAACUAUUUGAUACCAGACCACAUGAGGAUCACCCAUGUGAGUUUCGUCCUUAGCCGGUCCCUUGGCAGCAAAUAGUUUAUC [#27 Exclusion-TheophyllineB]” was tested, and the “apparent KD of MS2 coat protein” value was 24.1 nM. In the case of “CGCUACAUAGCGGCCGCCACUGUCAUGGCUACGAUAGGUCACUCGUACAUGAGGAUCACCCAUGUCAGGACCGGGCUAUCCUCGC [theeternabot_exclusion_MS2_Trp_B_20]”, the “apparent KD of MS2 coat protein” value is reported as 112 nM. For “GGAUAGGACAGAAGGAGCGACAUGAGGAUCACCCAUGUCUACCACGUCGAAAGACGCUCAUGUCAGGUAGGUCGCUGUCCUAUCG [ArgXB 9 #StaticStem #MS2LeftOffAptamer]”, the “apparent KD of MS2 coat protein” value was 191 nM. For “GGCUAGGCUAGCGAUACCAGCAACCAACAUGAUCUGAGGAUCACCCAGGUAGUUGGACGUUGCCCUUGGCAGCGCUAGCCUAGCC [SSThB NP+V+V2 #12 Diff Apt, Same Structure]”, the “apparent KD of MS2 coat protein” value was 16 nM. For “ACAUUAGCCACGGCCGCCACUGCCUUAUGAUUAUAAGGAUUAAUGAACAUGAGGAUCACCCAUGUCAGGACCGGGUGCCUACCAU [SSTryp B #5]”, the “apparent KD of MS2 coat protein” value was 32.5 nM. With “GUAGCGACGGCGGCCGCCACUCACAGGUGAGGGUAGACCAACCUUCACAUGAGGAUCACCCAUGUGAGGACCGGGCUGUCGCUAC [#13 Exclusion Tryptophan B]” the “apparent KD of MS2 coat protein” value was 117 nM. “ACAUGAGGAUCACCCAUGUACAUGAGGGAAGGAGCGGUACAUGUGCCAGGUAGGUCGCCCAUGAGCAUCAGCCAUGUACAUCAGC [l,ommullin]” was tested, and the “apparent KD of MS2 coat protein” value was 102 nM. With “AGUUACAUGAGGAUCACCCAUGUCCGGUUGCGAGGACCGGUACGGCCGCCACUCGGGUACAUCCCAGAAAAUACUGAAUGCCUGC [theeternabot_sameState_MS2_Trp_A_15]” the “apparent KD of MS2 coat protein” value was 66.4 nM. For “AGCAUGUUAUCAGAUACCAGACAUCUUUUUUUACGUAUUACAUGAGGAUCACCCAUGUUGGUCCCUUGGCAGCUGAAAUAUUUCA [JR_Nu_SSTheophyB_Sub022]”, the “apparent KD of MS2 coat protein” value was 269 nM.

Same assay, conditions: Eterna round: R107; input ligand: theophylline 2 mM
“AAUAAGAUGAGGAUCACCCAUCUAAAAGAUACCAGAGUGAUGAUCCUCCCUUGGCAGCUUAACGCUGAUUGAUUACAAUCAGCGA” was tested, and the “apparent KD of MS2 coat protein” value was 121 nM. “AGAUUCGACACGGCCGCCACUCGUGGUGGAUUACCUAGUGUCGAACAUGAGGAUCACCCAUGUACGAGGACCGGGUGUUGAGUCU [XTryp B #18]” was tested, and the “apparent KD of MS2 coat protein” value was 86 nM. “ACGAUAGGACCUGAGGAUCACCCAGGUGAUACCAGCCUGGAAACAGGCCCUUGGCAGCACCAAUACUCCAAUAACCUAUCGAAUA [TheoAX 11 #MicroSwitchBubble #AlternativeMS2]” was tested, and the “apparent KD of MS2 coat protein” value was 372 nM. In the case of “UUAUAAGUACCGGUCCUCAGAUCCUCAUGACGAGGACCGGUACGGCCGCCACUCGAAACAUGAGGAUCACCCAUGUAAUAAUAAC [Brourdmod04]”, the “apparent KD of MS2 coat protein” value is reported as 37.7 nM. For “UGUAUGGACUGAAGGAGCGCCUCAAACAUGAGGAUCACCCAUGUGGACAAAUAAGUCCUUGGGCAGGUAGGUCGCAGUCCAUACU [ArgBX 7 #StaticStem #MS2Late]”, the “apparent KD of MS2 coat protein” value was 90.6 nM. “GGAUAGGACACGGCCGCCACUGCCUAGGAUACUAGAAACAUUUCCUCACAUGAGGAUCACCCAUGUAGGACCGGGUGUCCUAUCG” was tested, and the “apparent KD of MS2 coat protein” value was 121 nM. In the case of “GUAUCGACAUGAGGAUCACCCAUGUCCGAAGGAGCGUUGGGAACAACAGGUAGGUCGCGGACAUAGAGCAUCCGGAAACGGAUGC [EAA NP+V+V2 #1]”, the “apparent KD of MS2 coat protein” value is reported as 34.3 nM. For “CCAUUGAUGACGGCCGCCACUGUCUACAUGAGGAUCACCCAUGUAUAGCAGGGUGGACCUAUGGACAGGACCGGGUCACUUGUCC [Tryp B Ex t7]”, the “apparent KD of MS2 coat protein” value was 12.4 nM. “UCGCUCUGGGUGAGAUCCGGAGAUAUGGAAGGAGCGCUGAUUCCAGCAGGUAGGUCGCCAACGGACAUGAGGAUCACCCAUGUAC [Same State - Arginine A (Freestyle 11)]” was tested, and the “apparent KD of MS2 coat protein” value was 55.5 nM. In the case of “CGCGGUUGAGAUGGGCCUUUGAUAAGUCUGCGAGGACCGGUACGGCCGCCACUCGAGGACAUGAGGAUCACCCAUGUACUUCGCG [Atriera]”, the “apparent KD of MS2 coat protein” value is reported as 57.7 nM. For “AUGUCUGAGUCGGCCGCCACUGGGUGUGGGUGAUGCCGGAUGUUGUACAUGAGGAUCACCCAUGUCAGGACCGGGAUUCCCACGA [Receve]”, the “apparent KD of MS2 coat protein” value was 8.73 nM. For “CAUCCUAGUACAUGAGGAUCACCCAUGUAUCGAGGACCGGUACGGCCGCCACUCGAAUGGCGGAUCGUUAAUCCUCUAGGAUGGA [Tryp A Ex 4a]”, the “apparent KD of MS2 coat protein” value was 11.5 nM. For “UCUGGUAUGACGGCCGCCACUAGAUCGUGAGAAGCCUGCAUACAUGAGGAUCACCCAUGUCUCACUAGGACCGGGUCAUUCCAAU [theeternabot_sameState_MS2_Trp_B_5]”, the “apparent KD of MS2 coat protein” value was 119 nM. In the case of “GAGGAAACUCACAUGAGGAUCACCCAUGUACGAGGACCGGUACGGCCGCCACUCGAAACCAUGGGCGGUAGUACGUGGAAGCUUG [Design 2 MOD 2]”, the “apparent KD of MS2 coat protein” value is reported as 23.8 nM. With “GGAUAGGACAGAAGGAGCGACGUGAGGCGAAAGCCAAUCCUUCAACAUGAGGAUCACCCAUGUCAGGUAGGUCGCUGUCCUAUCG [ArgBX 5]” the “apparent KD of MS2 coat protein” value was 22.3 nM. For “ACAUAUUGGUGGUACCAACGAAGGCGGAAACGAGGACCGGUACGGCCGCCACUCGGCGACAUGAGGAUCACCCAUGUGGUUAAAA [Exclusion - Tryptophan A (Freestyle 2)]”, the “apparent KD of MS2 coat protein” value was 851 nM. With “AAAGACAUGAGGAUCACCCAUGUGGGUGGGCGAGGACCGGUACGGCCGCCACUCGUGGGCGGGAAGGGAUAUUUAAUAAGGAAGA [same state--tryptophan A 1st shot]” the “apparent KD of MS2 coat protein” value was 272 nM.
